Bridges are numbered along the chain shown (N, C = ends). [ ]: non-standard residue; d: D form. Pro(4NHCOPhe) = not defined here; Nle = CCCC[C@H](N)C(=O)O

Sequences and labels used below:
B1: Example 64 (peptide)
peptide: FCTKSDPPICS
HELM: PEPTIDE1{F.C.T.K.S.D.P.P.I.C.S.[dP].E}$PEPTIDE1,PEPTIDE1,2:R3-10:R3|PEPTIDE1,PEPTIDE1,1:R1-13:R2$$$V2.0
SMILES: CC[C@H](C)[C@@H]1NC(=O)[C@@H]2CCCN2C(=O)[C@@H]2CCCN2C(=O)[C@H](CC(=O)O)NC(=O)[C@H](CO)NC(=O)[C@H](CCCCN)NC(=O)[C@H]([C@@H](C)O)NC(=O)[C@@H]2CSSC[C@H](NC1=O)C(=O)N[C@@H](CO)C(=O)N1CCC[C@@H]1C(=O)N[C@@H](CCC(=O)O)C(=O)N[C@@H](Cc1ccccc1)C(=O)N2
B2: Example 75 (peptide)
peptide: RCTKSDPPICF
HELM: PEPTIDE1{R.C.T.K.S.D.P.P.I.C.F.[dP].P}$PEPTIDE1,PEPTIDE1,2:R3-10:R3|PEPTIDE1,PEPTIDE1,1:R1-13:R2$$$V2.0
SMILES: CC[C@H](C)[C@@H]1NC(=O)[C@@H]2CCCN2C(=O)[C@@H]2CCCN2C(=O)[C@H](CC(=O)O)NC(=O)[C@H](CO)NC(=O)[C@H](CCCCN)NC(=O)[C@H]([C@@H](C)O)NC(=O)[C@@H]2CSSC[C@H](NC1=O)C(=O)N[C@@H](Cc1ccccc1)C(=O)N1CCC[C@@H]1C(=O)N1CCC[C@H]1C(=O)N[C@@H](CCCNC(=N)N)C(=O)N2
B3: Example 12 (peptide)
peptide: XCTKSDPPICR
HELM: PEPTIDE1{[O=C([C@@H](N[*:1])C1CCCCC1)[*:2]].C.T.K.S.D.P.P.I.C.R.[dP].P}$PEPTIDE1,PEPTIDE1,2:R3-10:R3|PEPTIDE1,PEPTIDE1,1:R1-13:R2$$$V2.0
SMILES: CC[C@H](C)[C@@H]1NC(=O)[C@@H]2CCCN2C(=O)[C@@H]2CCCN2C(=O)[C@H](CC(=O)O)NC(=O)[C@H](CO)NC(=O)[C@H](CCCCN)NC(=O)[C@H]([C@@H](C)O)NC(=O)[C@@H]2CSSC[C@H](NC1=O)C(=O)N[C@@H](CCCNC(=N)N)C(=O)N1CCC[C@@H]1C(=O)N1CCC[C@H]1C(=O)N[C@@H](C1CCCCC1)C(=O)N2
B4: Example 68 (peptide)
peptide: FCTKSDPPICS
HELM: PEPTIDE1{F.C.T.K.S.D.P.P.I.C.S.[dA].D}$PEPTIDE1,PEPTIDE1,2:R3-10:R3|PEPTIDE1,PEPTIDE1,1:R1-13:R2$$$V2.0
SMILES: CC[C@H](C)[C@@H]1NC(=O)[C@@H]2CCCN2C(=O)[C@@H]2CCCN2C(=O)[C@H](CC(=O)O)NC(=O)[C@H](CO)NC(=O)[C@H](CCCCN)NC(=O)[C@H]([C@@H](C)O)NC(=O)[C@@H]2CSSC[C@H](NC1=O)C(=O)N[C@@H](CO)C(=O)N[C@H](C)C(=O)N[C@@H](CC(=O)O)C(=O)N[C@@H](Cc1ccccc1)C(=O)N2
B5: Example 7 (peptide)
peptide: RETKSDPPIRF
HELM: PEPTIDE1{R.E.T.K.S.D.P.P.I.R.F.[dP].P}$PEPTIDE1,PEPTIDE1,1:R1-13:R2$$$V2.0
SMILES: CC[C@H](C)[C@@H]1NC(=O)[C@@H]2CCCN2C(=O)[C@@H]2CCCN2C(=O)[C@H](CC(=O)O)NC(=O)[C@H](CO)NC(=O)[C@H](CCCCN)NC(=O)[C@H]([C@@H](C)O)NC(=O)[C@H](CCC(=O)O)NC(=O)[C@H](CCCNC(=N)N)NC(=O)[C@@H]2CCCN2C(=O)[C@H]2CCCN2C(=O)[C@H](Cc2ccccc2)NC(=O)[C@H](CCCNC(=N)N)NC1=O
B6: Example 103 (peptide)
peptide: XCTASIPPQCY
HELM: PEPTIDE1{[O=C([C@H](CCc1ccccc1)N[*:1])[*:2]].C.T.A.S.I.P.P.Q.C.Y.[dP].P}$PEPTIDE1,PEPTIDE1,2:R3-10:R3|PEPTIDE1,PEPTIDE1,1:R1-13:R2$$$V2.0
SMILES: CC[C@H](C)[C@@H]1NC(=O)[C@H](CO)NC(=O)[C@H](C)NC(=O)[C@H]([C@@H](C)O)NC(=O)[C@@H]2CSSC[C@H](NC(=O)[C@H](CCC(N)=O)NC(=O)[C@@H]3CCCN3C(=O)[C@@H]3CCCN3C1=O)C(=O)N[C@@H](Cc1ccc(O)cc1)C(=O)N1CCC[C@@H]1C(=O)N1CCC[C@H]1C(=O)N[C@@H](CCc1ccccc1)C(=O)N2
B7: Example 90 (peptide)
peptide: XCTASIPPQCF
HELM: PEPTIDE1{[Nle].C.T.A.S.I.P.P.Q.C.F.[dP].P}$PEPTIDE1,PEPTIDE1,2:R3-10:R3|PEPTIDE1,PEPTIDE1,1:R1-13:R2$$$V2.0
SMILES: CCCC[C@@H]1NC(=O)[C@@H]2CCCN2C(=O)[C@H]2CCCN2C(=O)[C@H](Cc2ccccc2)NC(=O)[C@@H]2CSSC[C@H](NC1=O)C(=O)N[C@@H]([C@@H](C)O)C(=O)N[C@@H](C)C(=O)N[C@@H](CO)C(=O)N[C@@H]([C@@H](C)CC)C(=O)N1CCC[C@H]1C(=O)N1CCC[C@H]1C(=O)N[C@@H](CCC(N)=O)C(=O)N2
notes: also called Ex. 90
B8: Example 131 (peptide)
peptide: XCTASIPPQCQ
HELM: PEPTIDE1{[Nle].C.T.A.S.I.P.P.Q.C.Q.[dP].P}$PEPTIDE1,PEPTIDE1,2:R3-10:R3|PEPTIDE1,PEPTIDE1,1:R1-13:R2$$$V2.0
SMILES: CCCC[C@@H]1NC(=O)[C@@H]2CCCN2C(=O)[C@H]2CCCN2C(=O)[C@H](CCC(N)=O)NC(=O)[C@@H]2CSSC[C@H](NC1=O)C(=O)N[C@@H]([C@@H](C)O)C(=O)N[C@@H](C)C(=O)N[C@@H](CO)C(=O)N[C@@H]([C@@H](C)CC)C(=O)N1CCC[C@H]1C(=O)N1CCC[C@H]1C(=O)N[C@@H](CCC(N)=O)C(=O)N2
B9: Example 116 (peptide)
peptide: cyclo([Nle]CTASIPPQCY[dF]P)
modifications: disulfide 2-10
B10: Example 88 (peptide)
peptide: cyclo([Nle]CTASIP[Pro(4NHCOPhe)]QCY[dP]P)
modifications: disulfide 2-10; reading uncertain
notes: also called Ex. 88

Coagulation Factor Xa, from human plasma, sequence (P00742 41-488 limits assumed): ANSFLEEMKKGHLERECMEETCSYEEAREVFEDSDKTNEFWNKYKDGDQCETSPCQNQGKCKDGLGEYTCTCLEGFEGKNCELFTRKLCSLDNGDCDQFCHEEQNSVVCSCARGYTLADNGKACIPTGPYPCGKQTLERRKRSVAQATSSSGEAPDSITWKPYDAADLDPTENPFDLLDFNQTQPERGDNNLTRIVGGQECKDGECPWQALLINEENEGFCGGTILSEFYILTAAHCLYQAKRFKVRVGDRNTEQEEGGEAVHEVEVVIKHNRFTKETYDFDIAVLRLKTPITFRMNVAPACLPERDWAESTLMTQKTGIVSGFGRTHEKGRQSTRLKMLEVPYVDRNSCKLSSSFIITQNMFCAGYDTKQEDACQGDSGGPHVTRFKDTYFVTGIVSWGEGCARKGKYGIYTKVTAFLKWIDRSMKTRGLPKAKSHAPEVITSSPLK

For the first assay, the target named is Urokinase from human urine (human, UniProt P00749 21-431, limits assumed). Put plainly: cell-based or functional assay.
Consider B1, for which the % inhibition (commonly the relative decrease from the control value, in per cent) at 100 µM amounted to 3%.
On the same count and under the same terms, for B2 the value was 5.7%.
The same measure, in the same setting: for B3 the value was 12%; for B4, 4.6%; for B5, 1.1%.

The target of a further assay is Chymotrypsin, from human pancreas (human, UniProt P17538 19-263). Briefly: cell-based or functional assay.
Chymotrypsin, from human pancreas, sequence (P17538 19-263): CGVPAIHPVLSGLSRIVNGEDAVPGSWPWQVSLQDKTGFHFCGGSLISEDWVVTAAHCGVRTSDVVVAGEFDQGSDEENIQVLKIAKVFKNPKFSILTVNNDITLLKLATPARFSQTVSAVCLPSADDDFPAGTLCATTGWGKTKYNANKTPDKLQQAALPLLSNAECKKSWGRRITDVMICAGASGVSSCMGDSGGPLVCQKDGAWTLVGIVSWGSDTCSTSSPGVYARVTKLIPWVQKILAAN
B1: the “% inhibition at 100 µM” value was found to be 0%.
As for B2, the “% inhibition at 100 µM” value is 7.8%.
On the same count and under the same terms, for B3 the value was 28%; for B4, 4.3%.
The same measure, in the same setting: for B5 the value was 12%.

The next assay has as its target T1, CathepsinG, from human neutrophils (human, UniProt P08311 21-244).
T1 sequence (looked up): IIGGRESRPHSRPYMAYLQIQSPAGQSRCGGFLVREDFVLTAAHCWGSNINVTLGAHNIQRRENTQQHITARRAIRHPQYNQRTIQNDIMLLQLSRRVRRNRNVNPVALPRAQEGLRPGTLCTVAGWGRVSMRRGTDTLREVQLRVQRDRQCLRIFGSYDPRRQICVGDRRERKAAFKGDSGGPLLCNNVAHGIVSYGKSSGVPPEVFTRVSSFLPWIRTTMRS
Put plainly: cell-based or functional assay.
B1 yielded an IC50 of 45 nmol.
The same measure, in the same setting: for B2 the value was 86 nmol; for B3, 90 nmol.
On the same count and under the same terms, for B4 the value was 59 nmol; for B5, 91 nmol.

For the next assay, the target named is Trypsin, Iodination grade, from human pancreas (human, UniProt P07477 24-247). Put plainly: cell-based or functional assay.
Turning to B1, the “% inhibition at 100 µM” value was 87%.
With B2, the “% inhibition at 100 µM” value came out at 92.6%.
As for B3, the “% inhibition at 100 µM” value came out at 97%.
Consider B4, for which the “% inhibition at 100 µM” value came to 84.2%.
With B5, the “% inhibition at 100 µM” value was determined as 41%.

The next assay has as its target Coagulation Factor Xa, from human plasma (human, UniProt P00742 41-488, limits assumed). Briefly: cell-based or functional assay.
With B1, the “% inhibition at 100 µM” value was 0%.
Same read-out and setting: for B2 the value was 5.7%; for B3, 5%.
On the same count and under the same terms, for B4 the value was 8.6%; for B5, 11.7%.

The target in the next assay is T2, Chymase, from human skin (human, UniProt P23946 22-247).
T2 sequence (looked up): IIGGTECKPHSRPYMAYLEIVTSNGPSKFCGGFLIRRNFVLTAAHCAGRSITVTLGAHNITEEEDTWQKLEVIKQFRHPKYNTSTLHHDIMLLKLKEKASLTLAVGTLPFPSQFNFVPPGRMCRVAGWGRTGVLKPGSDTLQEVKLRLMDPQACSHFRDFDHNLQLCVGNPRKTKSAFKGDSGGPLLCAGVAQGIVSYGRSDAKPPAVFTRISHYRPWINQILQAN
Put plainly: cell-based or functional assay.
On to B1, for which the “% inhibition at 100 µM” value is 0%.
On the same count and under the same terms, for B2 the value was 0%.
As for B3, the “% inhibition at 100 µM” value amounted to 12%.
For B4, the “% inhibition at 100 µM” value was found to be 0%.
Still for that read-out and setting: for B5 the value was 13.4%.

For a further assay, the target named is Tryptase, from human lung (human, UniProt Q15661 31-275, limits assumed). Put plainly: cell-based or functional assay.
Tryptase, from human lung, sequence (Q15661 31-275 limits assumed): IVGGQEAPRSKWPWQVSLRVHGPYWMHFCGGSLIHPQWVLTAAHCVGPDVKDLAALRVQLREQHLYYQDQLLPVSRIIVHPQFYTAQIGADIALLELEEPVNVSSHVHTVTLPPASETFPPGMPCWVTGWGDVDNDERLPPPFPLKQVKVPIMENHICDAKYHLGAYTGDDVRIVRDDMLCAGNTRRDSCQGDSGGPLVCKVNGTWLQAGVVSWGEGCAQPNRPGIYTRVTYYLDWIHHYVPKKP
With B1, the “% inhibition at 100 µM” value turned out to be 0%.
Same read-out and setting: for B2 the value was 0%; for B3, 59.3%.
With B4, the “% inhibition at 100 µM” value was 21.3%.
On the same count and under the same terms, for B5 the value was 1.5%.

A further assay concerns the target T3, Elastase from human neutrophils (human, UniProt P08246 30-247, limits assumed).
T3 sequence (looked up): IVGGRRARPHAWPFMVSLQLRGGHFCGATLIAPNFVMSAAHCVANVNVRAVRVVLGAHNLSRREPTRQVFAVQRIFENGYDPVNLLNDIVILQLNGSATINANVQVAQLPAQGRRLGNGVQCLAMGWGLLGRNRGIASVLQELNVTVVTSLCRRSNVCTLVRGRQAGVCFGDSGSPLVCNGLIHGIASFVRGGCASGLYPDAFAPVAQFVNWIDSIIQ
Briefly: cell-based or functional assay.
Consider B1, for which the IC50 is greater than 100000 nmol.
Take B2: the “% inhibition at 100 µM” value amounted to 69.1%.
As for B3, the IC50 was found to be 37000 nmol.
The same measure, in the same setting: for B4 the value was greater than 100000 nmol.
On to B5, for which the “% inhibition at 100 µM” value stood at 1.5%.

A further assay deals with Thrombin, from Human Plasma, high activity (human, UniProt P00734 328-622). Briefly: cell-based or functional assay.
Consider B1, for which the “% inhibition at 100 µM” value is 2.3%.
Still for that read-out and setting: for B2 the value was 1.1%; for B3, 11%; for B4, 5.4%.
Still for that read-out and setting: for B5 the value was 0%.

A further assay has the same target. Put plainly: enzyme inhibition, pNA substrate.
B6: the “% inhibition at 100 µM” value came out at 10.2%.
On the same count and under the same terms, for B7 the value was 0%.

The target of a further assay is T4, Trypsin, Iodination grade, from human pancreas (human, UniProt P07477 24-247).
T4 construct: purified natural enzyme, bought
Briefly: enzyme inhibition, pNA substrate.
For the molecule B8, the “% inhibition at 100 µM” value worked out at 0%.
The same measure, in the same setting: for B9 the value was 0%.

For another assay, the target named is T5, Chymase, from human skin (human, UniProt P23946 22-247).
T5 construct: purified natural enzyme, bought
T5 sequence (looked up): T2 sequence (looked up)
Put plainly: enzyme inhibition, pNA substrate.
With B10, the “% inhibition at 100 µM” value is 0%.
Same read-out and setting: for B6 the value was 0%; for B7, 0%.

These data come from patent publication US20140213531A1 (POLYPHOR, published 2014).
